Biological target: FLAG-MTA1^C (UniProt Q13330)
Test: affinity purification with mass spectrometry

UniProt Q13330, sequence (Q13330 449-715): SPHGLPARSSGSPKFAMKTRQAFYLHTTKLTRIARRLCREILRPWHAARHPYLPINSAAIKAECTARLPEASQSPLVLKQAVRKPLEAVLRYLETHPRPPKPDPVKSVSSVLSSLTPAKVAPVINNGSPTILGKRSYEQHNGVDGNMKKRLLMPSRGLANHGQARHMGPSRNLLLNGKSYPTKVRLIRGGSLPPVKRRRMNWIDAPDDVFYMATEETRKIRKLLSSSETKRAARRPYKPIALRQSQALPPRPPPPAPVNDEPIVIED

stoichiometry N (RBBP per MTA^C): 2.5
Substance: HA-RBBP4 (from UniProt Q09028 1-425) (natural protein)
